Changes are numbered by the printed parent chain.

Our source for the encoding yield and P1 score values is patent US20230220589A1.

Assay [1] concerns the target M44-modified D NTAA target peptides. Put plainly: encoding assay; P2 A.
The target in assay [2] is M44-modified P NTAA target peptides. As to the kind of experiment: encoding assay; P2 A.
Assay [3] has as its target M44-modified E NTAA target peptides. Put plainly: encoding assay; P2 A.
For assay [4], the target named is M44-modified S NTAA target peptides. Put plainly: encoding assay; P2 A.
Assay [5] deals with M44-modified T NTAA target peptides. As to the kind of experiment: encoding assay; P2 A.
The target of assay [6] is M44-modified S NTAA target peptides. As to the kind of experiment: encoding assay; P2 Y.
The target of assay [7] is M44-modified L NTAA target peptides (M44-L-P2-peptide). Put plainly: Gini coefficient of P1 selectivity from multiplex encoding heatmap.
Assay [8] addresses M17-modified F NTAA target peptides. As to the kind of experiment: encoding assay; P2 A.
Assay [9] has as its target M17-modified Q NTAA target peptides. As to the kind of experiment: encoding assay; P2 A.
Assay [10] deals with M17-modified G NTAA target peptides. As to the kind of experiment: encoding assay; P2 A.
The target in assay [11] is M17-modified I NTAA target peptides. Put plainly: encoding assay; P2 A.
Assay [12] has as its target M17-modified N NTAA target peptides. Put plainly: encoding assay; P2 A.
Assay [13] addresses M17-modified H NTAA target peptides. Put plainly: encoding assay; P2 A.
Assay [14] addresses M17-modified E NTAA target peptides. Put plainly: encoding assay; P2 A.
Assay [15] addresses M17-modified A NTAA target peptides. Put plainly: encoding assay; P2 A.
In assay [16] the target is M17-modified D NTAA target peptides. As to the kind of experiment: encoding assay; P2 A.
Assay [17] addresses M17-modified L NTAA target peptides. As to the kind of experiment: encoding assay; P2 A.
Assay [18] concerns the target M17-modified W NTAA target peptides. As to the kind of experiment: encoding assay; P2 A.
Assay [19] concerns the target M17-modified V NTAA target peptides. Put plainly: encoding assay; P2 A.
Assay [20] has as its target M17-modified T NTAA target peptides. As to the kind of experiment: encoding assay; P2 A.
Assay [21] has as its target M17-modified P NTAA target peptides. As to the kind of experiment: encoding assay; P2 A.
In assay [22] the target is M17-modified Y NTAA target peptides (M17-Y-P2-peptide). As to the kind of experiment: encoding assay; P2 A.
Assay [23] addresses M17-modified M NTAA target peptides. Put plainly: encoding assay; P2 A.
The target of assay [24] is M17-modified Q NTAA target peptides. As to the kind of experiment: encoding assay; P2 H.
Assay [25] has as its target M17-modified A NTAA target peptides. As to the kind of experiment: encoding assay; P2 H.
For assay [26], the target named is M17-modified Y NTAA target peptides (M17-Y-P2-peptide). As to the kind of experiment: Gini coefficient of P1 selectivity from multiplex encoding heatmap.
In assay [27] the target is M17-modified F NTAA target peptides. As to the kind of experiment: encoding assay; P2 Y.
The target in assay [28] is M17-modified Q NTAA target peptides. Put plainly: encoding assay; P2 Y.
The target of assay [29] is M17-modified G NTAA target peptides. As to the kind of experiment: encoding assay; P2 Y.
Assay [30] deals with M17-modified I NTAA target peptides. As to the kind of experiment: encoding assay; P2 Y.
Assay [31] concerns the target M17-modified N NTAA target peptides. As to the kind of experiment: encoding assay; P2 Y.
Assay [32] concerns the target M17-modified H NTAA target peptides. Put plainly: encoding assay; P2 Y.
Assay [33] deals with M17-modified E NTAA target peptides. Put plainly: encoding assay; P2 Y.
Assay [34] has as its target M17-modified A NTAA target peptides. As to the kind of experiment: encoding assay; P2 Y.
Assay [35] concerns the target M17-modified D NTAA target peptides. Put plainly: encoding assay; P2 Y.
Assay [36] addresses M17-modified L NTAA target peptides. As to the kind of experiment: encoding assay; P2 Y.
The target in assay [37] is M17-modified W NTAA target peptides. As to the kind of experiment: encoding assay; P2 Y.
Assay [38] deals with M17-modified T NTAA target peptides. Put plainly: encoding assay; P2 Y.
Assay [39] concerns the target M17-modified S NTAA target peptides. Put plainly: encoding assay; P2 Y.
Assay [40] concerns the target M17-modified P NTAA target peptides. As to the kind of experiment: encoding assay; P2 Y.
Assay [41] deals with M17-modified Y NTAA target peptides (M17-Y-P2-peptide). Put plainly: encoding assay; P2 Y.
Assay [42] has as its target M17-modified M NTAA target peptides. As to the kind of experiment: encoding assay; P2 Y.
For assay [43], the target named is M17-modified F NTAA target peptides. Put plainly: encoding assay; P2 E.
Assay [44] has as its target M17-modified Q NTAA target peptides. Put plainly: encoding assay; P2 E.
Assay [45] concerns the target M17-modified G NTAA target peptides. Put plainly: encoding assay; P2 E.
The target in assay [46] is M17-modified I NTAA target peptides. Put plainly: encoding assay; P2 E.
Assay [47] deals with M17-modified N NTAA target peptides. Put plainly: encoding assay; P2 E.
For assay [48], the target named is M17-modified D NTAA target peptides. Put plainly: encoding assay; P2 E.
For assay [49], the target named is M17-modified W NTAA target peptides. As to the kind of experiment: encoding assay; P2 E.
Assay [50] concerns the target M17-modified T NTAA target peptides. As to the kind of experiment: encoding assay; P2 E.
For assay [51], the target named is M17-modified S NTAA target peptides. As to the kind of experiment: encoding assay; P2 E.
The target of assay [52] is M17-modified P NTAA target peptides. As to the kind of experiment: encoding assay; P2 E.
Assay [53] addresses M17-modified Y NTAA target peptides (M17-Y-P2-peptide). As to the kind of experiment: encoding assay; P2 E.
For assay [54], the target named is M17-modified M NTAA target peptides. As to the kind of experiment: encoding assay; P2 E.

B1: engineered M44-A binder (SEQ ID NO: 42) (designed binder, not shown: small tags and cut ends; large carriers)
chain: QVSVQPNFQQDKFLGRWFVAGLASNSSWDREKVAALSGAKMVVAPATDGGLNVTRTMLRKNQCETYTGLLQPAGSLGSYSWRSPHPGSTGSESVVETDYDQYALVYGQGSKGPGEDLRAAALWSRTQTPRAELKEKFTAFSKAQGFTEDTIVFLPQTDKCMTEQ
For the molecule B1, the encoding yield in assay [1] amounted to 0.02; in assay [2] it was 0.01; in assay [3] it was 0.02; in assay [4] it was 0.01; in [5] it was 0.01; in assay [6], 0.01.

B2: engineered M44-L binder (SEQ ID NO: 31) (designed binder, not shown: small tags and cut ends; large carriers)
chain: QDSTQNLIPAPPLISVPLQPGFWTERFQGRWFLVGFAGNAVQKERQSRLTMQSLILELQEDNSYNITAINVRGQGCRYIISTLVPSSRPGQFTLGNIHSYPQIQSLDVQVADTDYDQFAMVFLQGTSENKQYFEVALAGRTKGLSDELKERFVSFAKSLGLKDNNIVFSVPTDQCIDN
As to B2, the encoding yield was 0.02 in assay [1]; 0.01 in assay [2]; 0.02 in assay [3]; 0.01 in assay [4]; 0.01 in assay [5]; 0.01 in assay [6]. The same molecule registered a P1 score in assay [7] of 0.332.

B3: engineered M44-L binder (SEQ ID NO: 21) (designed binder, not shown: small tags and cut ends; large carriers)
chain: QVSVQPNFQQDKFLGRWFYAGHASNSSWYREKVAALSMAKLVVAPATDGGLNATETFLRKNQCETITSLLQPAGSLGSYSSRSPHGGSTWSTSVVETDYDQYALLYLQGSKGPGEDFRGAILASRTQTPRAELKEKFTAFSKAQGFTEDTIVFLPQTDKCMTEQ
Consider B3, for which the P1 score in assay [7] came out at 0.412.

B4: engineered M17-Y binder (SEQ ID NO: 61) (designed binder, not shown: small tags and cut ends; large carriers)
chain: TVPDRSEIAGKWYVVALASNTEFYLREKDWVKSAMARISFLGEDELKVSSAVPSPNGCYKVERTWKKTSDDGEVYNSRAAKLKVEVLDTDYKSYAVIYATRVKDGRTDHQMILYSRSPEVSPAATAIFRKLAGERNYTDEMVAMLPRQEECTVDEV
Take B4: the encoding yield in [8] worked out at 0.04; in [9], 0.02; in assay [10], 0.02; in [11] it was 0.02; in assay [12], 0.02; in assay [13] it was 0.02. The encoding yield in assay [14] amounted to 0.01; in [15] it was 0.02; in assay [16], 0.01; in assay [17], 0.02; in assay [18], 0.04; in assay [19] it was 0.01. Moreover, the encoding yield turned out to be 0.01 in assay [20]; 0.01 in assay [21]; 0.12 in assay [22]; 0.02 in assay [23]; 0.02 in assay [24]; 0.02 in assay [25]. Also, the encoding yield is 0.09 in assay [27]; 0.01 in assay [28]; 0.04 in assay [29]; 0.1 in assay [30]; 0.03 in assay [31]; 0.06 in [32]. The encoding yield in [33] is 0.01; in [34], 0.01; in assay [35], 0.03; in assay [36], 0.1; in assay [37] it was 0.07; in assay [38], 0.04. In addition, the encoding yield in assay [39] was 0.01; in assay [40] it was 0.03; in assay [41], 0.15; in [42] it was 0.04; in assay [43], 0.01; in assay [44], 0.02. Besides, the encoding yield in assay [45] is 0.01; in assay [46] it was 0.01; in assay [47], 0.01; in assay [48], 0.02; in [49], 0.03; in [50], 0.01. Also, the encoding yield in assay [51] worked out at 0.02; in assay [52], 0.02; in [53], 0.07; in assay [54], 0.01. For the same molecule, in assay [26], the P1 score is 0.196.

B5: upgraded binder after additional maturation round (SEQ ID NO: 62) (designed binder, not shown: small tags and cut ends; large carriers)
chain: B4 chain with E27G, W30R, A36V, L41Q, G105R, E119D
As to B5, the encoding yield amounted to 0.09 in assay [8]; 0.02 in assay [9]; 0.03 in [10]; 0.03 in [11]; 0.03 in [12]; 0.02 in [13]. For the same molecule, the encoding yield in [14] is 0.02; in [15] it was 0.02; in assay [16], 0.02; in [17], 0.04; in assay [18], 0.08; in assay [19] it was 0.02. The encoding yield amounted to 0.01 in assay [20]; 0.01 in [21]; 0.24 in assay [22]; 0.03 in [23]; 0.03 in [24]; 0.03 in [25]. Further, the encoding yield in assay [27] is 0.1; in assay [28], 0.01; in [29], 0.06; in assay [30] it was 0.12; in assay [31], 0.02; in assay [32], 0.06. The encoding yield in assay [33] turned out to be 0.03; in assay [34], 0.03; in assay [35], 0.03; in assay [36], 0.11; in [37] it was 0.12; in [38], 0.04. Moreover, the encoding yield in assay [39] came to 0.01; in [40], 0.05; in assay [41], 0.21; in [42] it was 0.02; in assay [43], 0.02; in assay [44] it was 0.03. For the same molecule, the encoding yield in assay [45] stood at 0.02; in [46] it was 0.02; in assay [47], 0.02; in assay [48], 0.02; in assay [49] it was 0.06; in assay [50], 0.02. The encoding yield is 0.03 in assay [51], 0.04 in assay [52], 0.16 in assay [53] and 0.01 in [54]. For the same molecule, the P1 score in [26] amounted to 0.204.
